The values below come from patent US8158376B2, “Bisubstrate fluorescent probe binding to protein kinases” (University of Tartu, priority 2006, dated 2012).

Common to all, as to experiment: Kinase selectivity panel
Common to all, as to assay type: biochemical

One data set addresses P70 S6K (Homo sapiens, UniProt P23443). The following applies: ATP 20 μM. The method, then:
(§1) The panel of kinases included all 52 kinases available for testing.
(§2) The assay of protein kinases was performed at 30° C. as described previously [Davies et al., Biochem. J. 351 (2000) 95; Murray et al., Biochem. J. 384 (2004) 477].

The target of a further data set is PLK1 (Homo sapiens, UniProt P53350). The following applies: read-out: residual activity (%) PLK1. The method, then:
as §1, §2

A further data set deals with MAPKAP-K3 (Homo sapiens, UniProt Q16644). The following applies: read-out: residual activity (%) MAPKAP-K3. The method, then: as §1, §2
Chain of MAPKAP-K3 (Q16644 whole entry, species assumed): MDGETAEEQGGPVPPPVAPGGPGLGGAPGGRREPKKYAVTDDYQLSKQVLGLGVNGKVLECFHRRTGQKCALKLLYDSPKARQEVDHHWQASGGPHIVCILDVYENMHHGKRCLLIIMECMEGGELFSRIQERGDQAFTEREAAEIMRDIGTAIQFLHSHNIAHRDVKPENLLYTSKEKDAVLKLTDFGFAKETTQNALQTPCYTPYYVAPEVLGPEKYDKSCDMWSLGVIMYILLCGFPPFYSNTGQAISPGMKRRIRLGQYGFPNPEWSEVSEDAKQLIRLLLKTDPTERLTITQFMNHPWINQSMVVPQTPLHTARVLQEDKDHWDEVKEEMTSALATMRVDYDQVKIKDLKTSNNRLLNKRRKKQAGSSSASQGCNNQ
The next data set has as its target MAPKAP-K2 (Homo sapiens, UniProt P49137). The note with it: read-out: residual activity (%) MAPKAP-K2. The method, then:
as §1, §2

A further data set addresses T1, CHK1 (Homo sapiens, UniProt O14757).
T1 sequence (O14757 1-476): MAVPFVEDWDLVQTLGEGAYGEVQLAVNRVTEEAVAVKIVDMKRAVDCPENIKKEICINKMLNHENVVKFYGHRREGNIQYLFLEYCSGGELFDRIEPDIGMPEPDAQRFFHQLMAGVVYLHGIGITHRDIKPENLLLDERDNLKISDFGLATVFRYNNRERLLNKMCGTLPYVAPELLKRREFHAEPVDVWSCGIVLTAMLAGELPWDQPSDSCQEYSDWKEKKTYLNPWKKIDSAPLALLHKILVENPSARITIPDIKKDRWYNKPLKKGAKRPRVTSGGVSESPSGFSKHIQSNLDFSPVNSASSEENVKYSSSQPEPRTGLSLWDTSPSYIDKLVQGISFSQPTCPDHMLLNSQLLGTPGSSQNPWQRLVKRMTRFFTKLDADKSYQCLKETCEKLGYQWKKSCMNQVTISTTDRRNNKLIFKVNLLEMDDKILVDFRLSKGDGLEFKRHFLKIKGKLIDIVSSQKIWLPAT
The note with it: read-out: residual activity (%) CHK1. The method, then:
as §1, §2

A further data set has as its target T2, ERK8 (Homo sapiens, UniProt Q8TD08).
T2 sequence (Q8TD08 1-544): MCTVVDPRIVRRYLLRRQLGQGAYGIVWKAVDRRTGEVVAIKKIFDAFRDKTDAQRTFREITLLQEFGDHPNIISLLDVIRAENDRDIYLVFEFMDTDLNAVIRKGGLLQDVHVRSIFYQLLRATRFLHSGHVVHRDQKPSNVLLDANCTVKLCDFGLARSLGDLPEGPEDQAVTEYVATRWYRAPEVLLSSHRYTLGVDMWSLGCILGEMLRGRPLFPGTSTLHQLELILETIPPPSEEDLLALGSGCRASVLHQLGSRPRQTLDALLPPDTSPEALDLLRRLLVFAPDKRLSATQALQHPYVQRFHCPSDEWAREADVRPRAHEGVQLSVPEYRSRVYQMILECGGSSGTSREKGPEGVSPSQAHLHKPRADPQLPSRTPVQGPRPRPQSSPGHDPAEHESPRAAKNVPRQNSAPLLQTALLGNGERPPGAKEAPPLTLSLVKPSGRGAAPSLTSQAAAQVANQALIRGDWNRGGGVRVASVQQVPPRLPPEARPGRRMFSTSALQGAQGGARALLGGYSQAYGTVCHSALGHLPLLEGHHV
The note with it: read-out: residual activity (%) ERK8. The method, then: as §1, §2

A further data set has as its target T3, PDK1 (Homo sapiens, UniProt O15530).
T3 sequence (O15530 1-556): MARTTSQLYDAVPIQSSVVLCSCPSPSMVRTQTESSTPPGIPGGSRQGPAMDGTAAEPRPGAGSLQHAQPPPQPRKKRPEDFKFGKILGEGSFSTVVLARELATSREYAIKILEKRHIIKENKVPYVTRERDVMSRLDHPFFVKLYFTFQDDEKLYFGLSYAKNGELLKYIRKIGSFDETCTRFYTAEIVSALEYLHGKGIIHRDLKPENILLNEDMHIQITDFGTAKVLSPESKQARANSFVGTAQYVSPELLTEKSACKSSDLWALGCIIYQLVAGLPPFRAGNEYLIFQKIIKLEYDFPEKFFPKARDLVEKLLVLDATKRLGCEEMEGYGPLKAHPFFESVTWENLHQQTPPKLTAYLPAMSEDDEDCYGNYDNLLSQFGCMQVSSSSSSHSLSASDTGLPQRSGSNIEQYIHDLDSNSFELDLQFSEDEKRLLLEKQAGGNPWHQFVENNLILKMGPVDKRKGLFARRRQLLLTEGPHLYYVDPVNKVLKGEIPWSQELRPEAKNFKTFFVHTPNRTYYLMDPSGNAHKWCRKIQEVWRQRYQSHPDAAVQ
The following applies: read-out: residual activity (%) PDK1. The method, then:
as §1, §2

The target of the next data set is T4, NEK2a (Homo sapiens, UniProt P51955).
T4 sequence (P51955 1-445): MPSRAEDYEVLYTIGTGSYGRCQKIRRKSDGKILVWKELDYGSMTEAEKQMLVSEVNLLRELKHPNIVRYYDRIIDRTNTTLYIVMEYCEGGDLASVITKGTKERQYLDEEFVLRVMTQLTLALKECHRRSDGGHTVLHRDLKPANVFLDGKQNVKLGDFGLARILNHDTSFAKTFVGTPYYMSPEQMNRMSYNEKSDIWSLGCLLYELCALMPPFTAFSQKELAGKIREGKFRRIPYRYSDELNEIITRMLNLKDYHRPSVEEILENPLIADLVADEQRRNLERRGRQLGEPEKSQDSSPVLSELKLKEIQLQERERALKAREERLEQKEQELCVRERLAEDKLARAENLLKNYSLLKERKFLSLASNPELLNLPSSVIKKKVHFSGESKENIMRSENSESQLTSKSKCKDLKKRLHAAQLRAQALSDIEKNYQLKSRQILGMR
The following applies: read-out: residual activity (%) NEK2a. The method, then:
as §1, §2

In a further data set the target is CAMK-1 (Homo sapiens, UniProt Q14012). The following applies: read-out: residual activity (%) CAMK-1. The method, then: as §1, §2
Another data set concerns the target smMLCK (Homo sapiens, UniProt Q15746). The following applies: read-out: residual activity (%) smMLCK. The method, then:
as §1, §2

The structures appear in SMILES notation. Where two headings read alike, the source gives them in different places.

Chain of P70 S6K (P23443 whole entry): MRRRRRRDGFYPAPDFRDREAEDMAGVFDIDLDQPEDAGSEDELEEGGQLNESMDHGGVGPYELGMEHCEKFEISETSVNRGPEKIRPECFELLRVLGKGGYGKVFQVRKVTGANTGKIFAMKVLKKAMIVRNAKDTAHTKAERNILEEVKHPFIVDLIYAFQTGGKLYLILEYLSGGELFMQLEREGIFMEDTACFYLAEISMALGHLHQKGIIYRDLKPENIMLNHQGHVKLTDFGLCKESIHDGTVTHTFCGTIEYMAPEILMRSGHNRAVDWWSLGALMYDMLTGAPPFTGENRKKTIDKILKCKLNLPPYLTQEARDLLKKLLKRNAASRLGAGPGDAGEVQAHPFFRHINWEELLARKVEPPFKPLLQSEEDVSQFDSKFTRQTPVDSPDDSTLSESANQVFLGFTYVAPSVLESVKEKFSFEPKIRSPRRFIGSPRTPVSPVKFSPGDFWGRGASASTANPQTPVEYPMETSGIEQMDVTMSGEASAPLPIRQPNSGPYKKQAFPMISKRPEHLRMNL
Chain of PLK1 (P53350 whole entry, species assumed): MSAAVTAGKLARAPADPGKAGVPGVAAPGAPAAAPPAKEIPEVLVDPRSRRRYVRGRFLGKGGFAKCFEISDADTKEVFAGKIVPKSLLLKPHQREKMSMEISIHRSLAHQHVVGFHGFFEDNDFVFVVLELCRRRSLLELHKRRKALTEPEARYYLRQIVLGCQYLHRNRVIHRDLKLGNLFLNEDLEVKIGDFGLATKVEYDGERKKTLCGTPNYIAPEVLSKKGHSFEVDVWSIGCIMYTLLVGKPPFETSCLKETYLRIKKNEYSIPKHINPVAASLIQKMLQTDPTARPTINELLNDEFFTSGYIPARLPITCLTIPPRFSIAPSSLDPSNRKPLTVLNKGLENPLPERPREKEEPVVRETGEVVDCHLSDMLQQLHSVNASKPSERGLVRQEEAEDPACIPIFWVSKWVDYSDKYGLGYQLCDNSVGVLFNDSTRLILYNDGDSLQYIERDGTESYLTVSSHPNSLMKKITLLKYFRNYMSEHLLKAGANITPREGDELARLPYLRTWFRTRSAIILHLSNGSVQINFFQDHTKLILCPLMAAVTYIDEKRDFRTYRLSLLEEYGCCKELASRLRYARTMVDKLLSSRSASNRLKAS
Chain of MAPKAP-K2 (P49137 whole entry, species assumed): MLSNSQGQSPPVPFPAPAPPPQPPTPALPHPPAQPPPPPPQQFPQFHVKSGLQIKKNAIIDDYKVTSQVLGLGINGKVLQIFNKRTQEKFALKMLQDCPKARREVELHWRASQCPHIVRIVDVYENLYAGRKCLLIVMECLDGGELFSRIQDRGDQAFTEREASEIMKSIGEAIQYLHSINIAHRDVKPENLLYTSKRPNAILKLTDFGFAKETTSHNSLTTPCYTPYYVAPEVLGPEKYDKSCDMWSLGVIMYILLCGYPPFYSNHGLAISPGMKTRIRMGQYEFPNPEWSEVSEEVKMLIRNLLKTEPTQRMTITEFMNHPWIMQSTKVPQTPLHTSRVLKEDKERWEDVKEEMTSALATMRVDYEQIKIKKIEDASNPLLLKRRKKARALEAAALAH

In the case of `N=C(N)NCCC[C@@H](NC(=O)[C@@H](CCCNC(=N)N)NC(=O)[C@@H](CCCNC(=N)N)NC(=O)[C@@H](CCCNC(=N)N)NC(=O)[C@@H](CCCNC(=N)N)NC(=O)[C@@H](CCCNC(=N)N)NC(=O)CCCCCNCCNS(=O)(=O)c1cccc2cnccc12)C(N)=O` [Compound 26, H9-Hex(D-Arg)6-NH2], the remaining activity at 1 µM came to 2% with P70 S6K (inhibitor 1 μM, read-out: residual activity (%) P70 S6K); 76% with PLK1 (inhibitor 1 μM, ATP 5 μM); 69% with MAPKAP-K3 (inhibitor 1 μM, ATP 20 μM); 80% with MAPKAP-K2 (inhibitor 1 μM, ATP 20 μM); 31% with CHK1 (inhibitor 1 μM, ATP 20 μM); 52% with ERK8 (inhibitor 1 μM, ATP 5 μM). In addition, the remaining activity at 1 µM in the data set with PDK1 (inhibitor 1 μM, ATP 20 μM) was 56%; with NEK2a (inhibitor 1 μM, ATP 50 μM) it was 98%; with CAMK-1 (inhibitor 1 μM, ATP 50 μM), under 10%; with smMLCK (inhibitor 1 μM, ATP 50 μM), 90%.
For `N=C(N)NCCC[C@@H](NC(=O)[C@@H](CCCNC(=N)N)NC(=O)[C@@H](CCCNC(=N)N)NC(=O)[C@@H](CCCNC(=N)N)NC(=O)[C@@H](CCCNC(=N)N)NC(=O)[C@@H](CCCNC(=N)N)NC(=O)CCCCCNC(=O)[C@H]1O[C@@H](n2cnc3c(N)ncnc32)[C@H](O)[C@@H]1O)C(N)=O` [Compound 5, AdcAhx(D-Arg)6-NH2], the “residual activity (%) P70 S6K” value with P70 S6K (inhibitor 1 μM) was 7 (±2) %. In addition, the remaining activity at 1 µM is 7 to 28% in the data set with P70 S6K (read-out: residual activity (%) P70 S6K, inhibitor 1 μM); 81% with PLK1; 67% with MAPKAP-K3; 85% with MAPKAP-K2; 16% with CHK1; 50% with ERK8. The remaining activity at 1 µM worked out at 62% with PDK1, 82% with NEK2a, 15% with CAMK-1 and 72% in the data set with smMLCK.
